# In patent US20240174741A1 (IMMUNOME, published 2024):
# T1: IL-36Ra (human, UniProt Q9UBH0 1-155, limits assumed)
# T1 sequence (looked up): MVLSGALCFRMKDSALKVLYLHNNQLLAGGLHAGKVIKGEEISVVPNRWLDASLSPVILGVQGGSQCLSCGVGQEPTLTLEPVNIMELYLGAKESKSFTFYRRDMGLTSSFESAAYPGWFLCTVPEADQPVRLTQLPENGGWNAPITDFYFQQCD
# T2: human interleukin-38 (IL-38) (human, UniProt Q8WWZ1 1-152)
# T2 construct: The Adipogen protein is called full length; also called IL1F10/IL38; IL1F10
# T2 sequence (looked up): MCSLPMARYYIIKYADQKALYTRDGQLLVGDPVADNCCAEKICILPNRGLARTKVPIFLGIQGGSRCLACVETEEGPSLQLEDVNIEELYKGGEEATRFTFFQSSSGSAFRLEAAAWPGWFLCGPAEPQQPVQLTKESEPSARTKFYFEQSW
# T3: IL-18 (human, UniProt Q14116 1-193, limits assumed)
# T3 sequence (looked up): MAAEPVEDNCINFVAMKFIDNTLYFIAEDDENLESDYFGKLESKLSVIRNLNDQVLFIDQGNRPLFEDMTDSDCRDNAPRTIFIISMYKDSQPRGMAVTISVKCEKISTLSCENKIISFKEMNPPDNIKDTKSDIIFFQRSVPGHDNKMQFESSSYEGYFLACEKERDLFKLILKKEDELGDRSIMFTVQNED
# T4: IL-33 (human, UniProt O95760 1-270, limits assumed)
# T4 sequence (looked up): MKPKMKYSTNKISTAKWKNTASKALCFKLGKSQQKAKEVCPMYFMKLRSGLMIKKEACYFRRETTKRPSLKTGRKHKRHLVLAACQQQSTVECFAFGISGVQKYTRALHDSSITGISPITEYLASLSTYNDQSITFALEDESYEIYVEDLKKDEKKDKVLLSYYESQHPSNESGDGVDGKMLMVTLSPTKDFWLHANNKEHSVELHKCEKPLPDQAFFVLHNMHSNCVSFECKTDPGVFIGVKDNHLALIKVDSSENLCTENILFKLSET
# T5: IL-37 (human, UniProt Q9NZH6 1-218, limits assumed)
# T5 sequence (looked up): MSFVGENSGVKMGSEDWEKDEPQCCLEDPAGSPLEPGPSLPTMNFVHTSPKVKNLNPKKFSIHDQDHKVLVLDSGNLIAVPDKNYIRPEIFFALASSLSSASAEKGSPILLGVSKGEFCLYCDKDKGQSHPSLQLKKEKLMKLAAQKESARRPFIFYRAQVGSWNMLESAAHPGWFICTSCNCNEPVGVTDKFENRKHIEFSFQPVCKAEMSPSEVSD
# T6: IL-36g (human, UniProt Q9NZH8 1-169, limits assumed)
# T6 sequence (looked up): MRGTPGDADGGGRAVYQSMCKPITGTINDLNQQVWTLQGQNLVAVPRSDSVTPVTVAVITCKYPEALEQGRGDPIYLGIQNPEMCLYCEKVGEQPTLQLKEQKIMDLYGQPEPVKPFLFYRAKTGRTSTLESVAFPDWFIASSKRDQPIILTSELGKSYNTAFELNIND
# T7: IL-36b (human, UniProt Q9NZH7 1-164, limits assumed)
# T7 sequence (looked up): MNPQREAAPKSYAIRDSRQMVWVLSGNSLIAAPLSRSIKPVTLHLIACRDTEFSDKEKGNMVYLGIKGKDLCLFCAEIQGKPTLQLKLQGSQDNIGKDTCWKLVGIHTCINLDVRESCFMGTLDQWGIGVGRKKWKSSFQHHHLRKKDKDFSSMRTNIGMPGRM
# T8: IL-36a (human, UniProt Q9UHA7 1-158, limits assumed)
# T8 sequence (looked up): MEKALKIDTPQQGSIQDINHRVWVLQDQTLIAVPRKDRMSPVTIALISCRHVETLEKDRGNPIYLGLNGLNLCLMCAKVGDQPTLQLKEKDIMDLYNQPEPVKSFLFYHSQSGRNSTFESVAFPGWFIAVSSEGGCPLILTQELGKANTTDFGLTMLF
# T9: IL-1α (human, UniProt P01583 1-271, limits assumed)
# T9 sequence (looked up): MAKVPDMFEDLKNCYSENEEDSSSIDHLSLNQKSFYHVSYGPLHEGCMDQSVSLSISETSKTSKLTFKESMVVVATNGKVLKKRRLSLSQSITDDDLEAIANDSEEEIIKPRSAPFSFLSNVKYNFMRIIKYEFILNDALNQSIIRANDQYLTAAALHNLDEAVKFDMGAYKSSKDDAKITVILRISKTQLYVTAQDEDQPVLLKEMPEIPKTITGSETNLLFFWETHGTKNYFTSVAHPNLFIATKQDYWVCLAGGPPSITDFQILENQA
# B1: CD1-M3 (antibody, V domains shown)
# VH: EVQLQQSGPELVKPGASVKIPCKASGYTFTDYNMDWVKQSHGKSLEWIGDINPNNGGTIYNQKFKGKATLTVDKSSSTAYMELRSLTSEDTAVYYCSRPYYGYFAYWGQGTLVTVSA
# VL: DVVMTQSPLSLPVSLGDQASISCRSSQSLVHSHENTFLHWYLQKPGQSPKLLIYRVSNRFSGVPDRFSGSGSGTDFTLKISRVEAEDLGVYFCSQSTHVPLTFGAGTKLELK
# notes: Mouse monoclonal from a hybridoma of a CD-1 mouse immunized with full length recombinant IL-38
# Columns and labels:
# Test in all cases: CDI HuProt native protein microarray, IL-1 family members
# [1] = biological target: T1, IL-36Ra
# Method: (§1) To confirm specificity to IL-38, several lead candidate antibodies (CD1-M3, CD1-M8, NZB-M8) were analyzed in a High-Spec Cross-reactivity Assay using native HuProt arrays (CDI Laboratories). […] of antibody was incubated overnight in a cold room, washed, and probed with anti-human secondary antibodies. Fluorescence intensity (F635) as an indicator of binding was measured for each spot. CDI software quantified the specificity of the antibody to each spot based on a Z-score. Z-score is defined as [F635−(Average F635 on array)]/(Standard deviation of F635 on array). S-score is defined as the difference between the Z-score of a given protein and the Z-score of the next highest protein.
# [2] = biological target: T2, human interleukin-38 (IL-38)
# Method: as §1
# [3] = biological target: IL-1β (human, UniProt P01584 1-269, limits assumed)
# Method: as §1
# [4] = biological target: IL-1Ra (human, UniProt P18510 26-177, limits assumed)
# Sequence of IL-1Ra (P18510 26-177 limits assumed): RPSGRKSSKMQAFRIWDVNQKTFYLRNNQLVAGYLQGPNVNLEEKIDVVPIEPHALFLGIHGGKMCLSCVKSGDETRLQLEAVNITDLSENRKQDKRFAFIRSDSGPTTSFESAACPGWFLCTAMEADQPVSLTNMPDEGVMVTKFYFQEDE
# Method: as §1
# [5] = biological target: T3, IL-18
# Method: as §1
# [6] = biological target: T4, IL-33
# Method: as §1
# [7] = biological target: T5, IL-37
# Method: as §1
# [8] = biological target: T6, IL-36g
# Method: as §1
# [9] = biological target: T7, IL-36b
# Method: as §1
# [10] = biological target: T8, IL-36a
# Method: as §1
# [11] = biological target: T9, IL-1α
# Method: as §1
binder,measurement,setting,value
B1,Z-score,[1],-0.017
same,Z-score,[2],140
same,Z-score,[3],-0.016
same,Z-score,[4],-0.013
same,Z-score,[5],-0.016
same,Z-score,[6],-0.02
same,Z-score,[7],-0.013
same,Z-score,[8],-0.017
same,Z-score,[9],-0.016
same,Z-score,[10],-0.008
same,Z-score,[11],-0.013
